The subject of one assay is MC4R KO mice. The conditions noted are these: MC4R KO mice (intact MC3R); cited from earlier work.
The next assay deals with male mice. The conditions noted are these: icv, 5 μg, at 4, 6, and 24 h; cited from earlier work.
The test system of assay [1] is wildtype, MC4R KO, and MC3R KO mice. The settings on record: significant out to at least 7 days post-administration; cited from earlier work.
In assay [2] the target is mouse melanocortin-1 receptor (mouse) (UniProt Q01727).
Assay [3] concerns the target mouse melanocortin-3 receptor (mouse) (UniProt P33033).
Assay [4] addresses mouse melanocortin-5 receptor (mouse) (UniProt P41149).
Assay [5] addresses mouse melanocortin-4 receptor (mouse) (UniProt P56450).

Ends that are not written are not given here.

UniProt Q01727, sequence (Q01727 whole entry): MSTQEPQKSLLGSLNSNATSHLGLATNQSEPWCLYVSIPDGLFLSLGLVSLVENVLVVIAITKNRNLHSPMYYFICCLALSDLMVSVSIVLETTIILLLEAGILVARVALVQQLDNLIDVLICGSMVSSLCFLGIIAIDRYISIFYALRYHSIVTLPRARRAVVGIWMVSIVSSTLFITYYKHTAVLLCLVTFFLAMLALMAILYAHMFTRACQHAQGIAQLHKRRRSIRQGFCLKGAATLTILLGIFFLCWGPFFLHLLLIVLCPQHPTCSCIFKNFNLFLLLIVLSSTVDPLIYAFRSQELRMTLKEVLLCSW
UniProt P41149, sequence (P41149 whole entry): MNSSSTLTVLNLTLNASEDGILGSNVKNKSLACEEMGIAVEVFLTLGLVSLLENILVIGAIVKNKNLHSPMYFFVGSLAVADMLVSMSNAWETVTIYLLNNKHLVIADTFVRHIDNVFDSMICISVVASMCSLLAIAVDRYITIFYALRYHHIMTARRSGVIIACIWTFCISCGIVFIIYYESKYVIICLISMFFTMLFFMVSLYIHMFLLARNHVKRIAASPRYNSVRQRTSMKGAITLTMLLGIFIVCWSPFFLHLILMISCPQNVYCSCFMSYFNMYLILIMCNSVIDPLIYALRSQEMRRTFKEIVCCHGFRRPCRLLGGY
UniProt P33033, sequence (P33033 whole entry): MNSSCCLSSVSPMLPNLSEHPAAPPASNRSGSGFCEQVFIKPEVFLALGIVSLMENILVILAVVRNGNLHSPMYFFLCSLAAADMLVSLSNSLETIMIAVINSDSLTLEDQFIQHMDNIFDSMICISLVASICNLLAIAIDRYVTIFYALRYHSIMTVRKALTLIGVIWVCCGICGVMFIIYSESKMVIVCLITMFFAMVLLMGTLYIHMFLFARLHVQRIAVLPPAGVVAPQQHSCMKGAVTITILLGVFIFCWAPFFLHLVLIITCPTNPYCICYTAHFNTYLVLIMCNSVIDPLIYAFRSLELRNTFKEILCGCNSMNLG
UniProt P56450, sequence (P56450 whole entry): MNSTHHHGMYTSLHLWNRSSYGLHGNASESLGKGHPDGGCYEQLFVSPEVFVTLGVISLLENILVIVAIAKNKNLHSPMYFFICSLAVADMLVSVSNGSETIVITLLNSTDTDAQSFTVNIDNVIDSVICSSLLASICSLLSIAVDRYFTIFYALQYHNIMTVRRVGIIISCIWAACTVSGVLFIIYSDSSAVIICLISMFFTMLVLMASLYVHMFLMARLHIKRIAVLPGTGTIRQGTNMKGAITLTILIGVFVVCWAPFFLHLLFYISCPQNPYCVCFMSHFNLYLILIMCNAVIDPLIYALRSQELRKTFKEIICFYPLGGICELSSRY

On to Ac-His-DPhe-Arg-Trp-NH2, for which the “food intake in MC4R KO mice” value in the assay with MC4R KO mice is “decrease in food intake”.
With `CC(=O)N[C@@H](CCCNC(=N)N)C(=O)N[C@@H](CCCNC(=N)N)C(=O)N[C@H](Cc1ccc(I)cc1)C(=O)N1Cc2ccccc2C[C@H]1C(N)=O` [compound 1, Ac-Arg-Arg-(pI)DPhe-Tic-NH2], in the assay on male mice, the “food intake versus artificial cerebrospinal fluid vehicle” value is listed as “statistically significant increase in food intake”.
In the case of “AGRP: naturally occurring MC3R/MC4R antagonist agouti-related protein (SSRRCVRLHESCLGQQVPCCDPCATCYCRFFNAFCYCRKLGTAMNPCSRT; ends and bridges not checked; cysteine pairing not given here; UniProt O00253 83-132, looked up)”, the “food intake compared to saline injection” value in assay [1] is given as “dose-dependent increase in food intake”.
For the molecule Ac-Arg-Arg-(pI)DPhe-Wrf-NH2 (peptide), the agonist EC50, cAMP AlphaScreen, HEK293 cells stably expressing mMC1R in assay [2] turned out to be 380 nM. Also, in assay [3], the agonist EC50, cAMP AlphaScreen, HEK293 cells stably expressing mMC3R is 570 nM. The same molecule registered an agonist EC50, cAMP AlphaScreen, HEK293 cells stably expressing mMC5R in assay [4] of 240 nM.
Regarding Ac-Arg-Arg-wsf-Tic-NH2 (peptide), the agonist EC50, cAMP AlphaScreen, HEK293 cells stably expressing mMC5R in assay [4] was determined as 350 nM.
On to NDP-MSH (peptide), for which the agonist EC50, cAMP AlphaScreen, HEK293 cells stably expressing mMC1R in assay [2] amounted to 0.013 nM. This molecule registered an agonist EC50, cAMP AlphaScreen, HEK293 cells stably expressing mMC3R in assay [3] of 0.16 nM. For the same molecule, the agonist EC50, cAMP AlphaScreen, HEK293 cells stably expressing mMC4R in assay [5] is 0.68 nM. In addition, in assay [4], the agonist EC50, cAMP AlphaScreen, HEK293 cells stably expressing mMC5R came to 0.26 nM.
Consider Ac-Arg-Arg-(pI)DPhe-wsf-NH2 (peptide), for which the agonist EC50, cAMP AlphaScreen, HEK293 cells stably expressing mMC1R in assay [2] was determined as 210 nM. In addition, the agonist EC50, cAMP AlphaScreen, HEK293 cells stably expressing mMC5R in assay [4] came to 650 nM.
With MTII, in the assay on MC4R KO mice, the “food intake in MC4R KO mice” value is listed as “decrease in food intake”.
In the case of Ac-Arg-Arg-(pI)DPhe-Tic-NH2 (peptide), the agonist EC50, cAMP AlphaScreen, HEK293 cells stably expressing mMC1R in assay [2] was determined as 0.18 nM. The agonist EC50, cAMP AlphaScreen, HEK293 cells stably expressing mMC3R in assay [3] stood at 10 nM. This molecule also gave an agonist EC50, cAMP AlphaScreen, HEK293 cells stably expressing mMC5R in assay [4] of 7 nM.
